What was measured:
Settings in all cases: both partners purified
[1] = target: T1, HAstV8 capsid spike (Spike 8) fused to a 10x histidine tag (Human astrovirus 8 (HAstV-8), Q9IFX1, UniProt Q9IFX1); assay: BLI; His-tagged Spike 8 (0.5 ug/ml) loaded on Anti-Penta-His (HIS1K) biosensors; scFv as analyte in six 1:2 serial dilutions (from 80 nM scFv 3E8 or 20 nM scFv 2D9); PBS pH 7.4, 2% BSA, 0.09% Tween 20; 22 C; global 1:1 fit; mean of triplicate assays
T1 construct: HAstV serotype 8 capsid spike protein, amino acids 429 to 647 of the capsid protein (UniProtKB entry Q9IFX1); A thrombin cleavage site stands between the spike and the C-terminal 10-histidine tag (pET52b); Captured on Anti-Penta-His sensors by the tag; also called His-tagged Spike 8; HAstV serotype 8 capsid spike protein; not shown: His10, C-terminal, kept

[2] = target: T2, HAstV8 capsid spike (Spike 8), purification tag removed by thrombin (human astrovirus serotype 8 (HAstV8), UniProt Q9IFX1); assay: SEC; 3 molar excess scFv 3E8 with Spike 8 overnight at 4 C, tags removed with thrombin; Superdex 200 in TBS pH 7.2; coeluted at apparent ~105 kDa against gel filtration standards; data not shown
T2 construct: HAstV serotype 8 capsid spike protein, amino acids 429 to 647 of the capsid protein (UniProtKB entry Q9IFX1); Same construct as m1 after thrombin digestion; residues of the thrombin site may remain at the C-terminus; source: tag removed with thrombin during complex formation; not shown: His10, C-terminal, cleaved

[3] = target: T2, HAstV8 capsid spike (Spike 8), …; assay: SEC; 3.5 molar excess scFv 2D9 with Spike 8 overnight at 4 C, tags removed with thrombin; Superdex 200 in TBS pH 8.0; coeluted at apparent ~105 kDa against gel filtration standards; data not shown

T1 sequence (Q9IFX1 429-647, one chain of several): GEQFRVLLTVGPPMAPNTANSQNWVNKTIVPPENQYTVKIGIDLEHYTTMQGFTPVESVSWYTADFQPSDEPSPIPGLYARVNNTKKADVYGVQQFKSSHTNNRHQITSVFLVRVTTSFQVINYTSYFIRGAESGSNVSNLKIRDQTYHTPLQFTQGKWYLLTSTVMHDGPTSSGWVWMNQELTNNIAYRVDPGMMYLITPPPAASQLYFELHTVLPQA
T2 sequence (Q9IFX1 429-647): as the sequence (Q9IFX1 429-647, one chain of several) above

B1: scFv 3E8 (single-chain variable fragment of mouse monoclonal antibody 3E8) (scFv, V domains shown)
VH: DVQLQESGPGLVKPSQSLSLTCSVTGYSITSGYYWNWIRQFPGNKLEWMGYISYDGSNNYNPSLKNRISITRDTSKNQFFLKLNSVTTEDTATYYCATFYDGYDYWGQGTTLTVSS
VL: DIVMTQSHKFMSTSVGDRVSITCKASQDVSTAVAWYQQKPGQSPKLLIYWASTRHTGVPDRFTGSGSGTDYTLTISSVQAEDLALYYCQQHYSTPFTFGSGTKLEIK
notes: 3E8 kappa chain variable region; GGS(GGGGS)3 linker; 3E8 heavy chain variable region; A thrombin cleavage site stands between the scFv and the C-terminal Twin Strep-tag; source: CHO-S cells (electroporated), secreted, purified (StrepTrap HP)
Kd [1]: 40 nM

B2: scFv 3E8, purification tag removed by thrombin (scFv, V domains shown)
VH: B1 VH
VL: B1 VL
notes: 3E8 kappa chain variable region, as in m3; GGS(GGGGS)3 linker; 3E8 heavy chain variable region, as in m3; Same construct as m3 after thrombin digestion; source: CHO-S cells (electroporated), secreted, purified (StrepTrap HP); tag removed with thrombin during complex formation; not shown: Twin Strep-tag, C-terminal, cleaved
stoichiometry N [2]: 1 scFv per Spike 8 protomer (2:2 complex)

B3: scFv 2D9 (single-chain variable fragment of mouse monoclonal antibody 2D9) (scFv, V domains shown)
VH: QVQLKQSGPGLVQPSQSLSITCTVSGFSLTSYGVHWVRQSPGKGLEWLGVIWSGGSTDYNAAFISRLSISKDNSKSQVFFKMNSLQANDTAIYYCARNSLLDAMDYWGQGTSVTVSS
VL: SIVMTQTPKFLLVSAGDRVTITCKASQSVSNAVAWYQQKPGQSPKLLIYYASNRYTGVPDRFTGSGYGTDFTFTISTVQAEDLAVYFCQQDYSSPLTFGAGTKLELK
notes: 2D9 kappa chain variable region; GGS(GGGGS)3 linker; 2D9 heavy chain variable region; A thrombin cleavage site stands between the scFv and the C-terminal Twin Strep-tag; source: D. melanogaster Schneider 2 (S2) cells, stably transfected, secreted, purified (StrepTrap HP)
Kd [1]: 0.00245 nM

B4: scFv 2D9, purification tag removed by thrombin (scFv, V domains shown)
VH: B3 VH
VL: B3 VL
notes: 2D9 kappa chain variable region, as in m5; GGS(GGGGS)3 linker; 2D9 heavy chain variable region, as in m5; Same construct as m5 after thrombin digestion; source: D. melanogaster Schneider 2 (S2) cells, stably transfected, secreted, purified (StrepTrap HP); tag removed with thrombin during complex formation; not shown: Twin Strep-tag, C-terminal, cleaved
stoichiometry N [3]: 1 scFv per Spike 8 protomer (2:2 complex)

From article PMC8754201, “Structures of Two Human Astrovirus Capsid/Neutralizing Antibody Complexes Reveal Distinct Epitopes and Inhibition of Virus Attachment to Cells” (Journal of Virology, 2021)
